Where two headings read alike, the source gives them in different places.
How the values were obtained:
Test in all cases: native MS
[1] = target: FapF
[2] = target: FapF; remark: listed apart in the source
[3] = target: FapF; remark: listed apart in the source

FapC (natural protein)
stoichiometry N (per FapF trimer) [1]: 1

FapD (natural protein)
stoichiometry N (per FapF trimer) [1]: 1

FapE (natural protein)
stoichiometry N (per FapF trimer) [1]: 1

FapF (natural protein)
stoichiometry N [1]: 3 | stoichiometry N [2]: 3 | stoichiometry N [3]: 3

Source: publication PMC7305028
